Laboratory results from article PMC7835374 (2021).

Biological target: recombinant full-length hemagglutinin H6 (A/Taiwan/2/2013) (influenza A virus H6N1 (A/Taiwan/2/2013))
Assay: BLI

B1: 3I14^D93N IgG1 (antibody, V domains shown)
VH: QVQLLESGGGVVQPGRSLRLSCAASGFTFSNYGMHWVRQAPGKGLEWVAIISFDGSKKYYANSVKGRSTISRDNSKNTLSLQMNSLGPEDTALYYCAKLPSPYYFDSRFVWVAASAFHFWGQGILVTVSS
VL: LTQPPSASGTPGQRVTISCSGSSSNIGGNTVHWFQQLPGTAPKLLIYTNSLRPSGVPDRFSGSKSGTSASLAISGLQSEDEADYYCAAWDNSLNGQVFGGGTKLTVL
Kd: 0.4 nM
